Source: the supplement of paper PMC10567573
± gives the standard deviation.

Assay: protein stability index of a GFP-peptide fusion (GPS, HEK-293T) (PSI 1-6); higher = more stable
[1] = treatment: DMSO, c terminus: a fixed tail appended
[2] = treatment: MLN4924 1 uM, 8 h, c terminus: a fixed tail appended
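Further: 24-mer peptide tiles fused after GFP, lentivirally expressed, FACS-sorted into six equal bins by GFP/DsRed ratio, decoded by Illumina sequencing, PSI is the read-weighted mean bin number.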

| Sequence | protein stability index [1] | protein stability index [2] | protein stability index (treatment: DMSO, c terminus: native) | protein stability index (treatment: MLN4924 1 uM, 8 h, c terminus: native) |
| --- | --- | --- | --- | --- |
| SVSKAQSIYGIPHSTLEYKVKERL [LCOR] | 3.42 ± 0.43 | 3.54 ± 0.13 |  |  |
| KLSPLRLSVSNNQEPDFIDDIEEK [KMT2E] | 4.9 ± 0.24 | 5.06 ± 0.12 |  |  |
| GMDLNLEAEALAGTGLVLDEQLNE [HDAC6] | 5.4 ± 0.44 | 5.33 ± 0.24 |  |  |
| LVAKELGQTGTRLTPADKAEHMKR [AUP1] | 4.41 ± 0.4 | 4.29 ± 0.21 |  |  |
| LEASNYQMMPYMQPVMQSDRTAIR [KLHL13] | 3.9 ± 0.38 | 4.17 ± 0.25 |  |  |
| SILFGFWTSFICDTYIVLAWISKI [SMIM2] | 3.15 ± 0.34 | 3.31 ± 0.25 |  |  |
| LMIIVCIDQWKNKIWPEIKVPRPD [RETREG3] | 2.81 ± 0.43 | 2.82 ± 0.45 |  |  |
| QGLIRAGKVEAQHILASAPTDRNL [PYCR3] | 3.96 ± 0.16 | 4.07 ± 0.4 |  |  |
| TKSHIMLVQRQMSVIEEDLEEFQL [NECAB1] | 3.22 ± 0.21 | 3.12 ± 0.21 |  |  |
| PVQGSSEDNLSLVCLPRSEDDDCD [DRICH1] | 5.62 ± 0.2 | 5.53 ± 0.21 |  |  |
| DSLAKEIQYLKDLIEEVRKARGKK [ATF4] | 2.25 ± 0.31 | 2.14 ± 0.44 |  |  |
| DPNSQVGACIVNSENKIVGIGYNG [DCTD] | 4.56 ± 0.15 | 4.56 ± 0.48 |  |  |
| STALERPSFLSQTGHGVSRGPSPV [FCHO1] | 4.1 ± 0.34 | 4.28 ± 0.42 |  |  |
| IPVFRLARRRKKILFYCHFPDLLL [ALG2] | 2.88 ± 0.57 | 2.44 ± 0.29 |  |  |
| HDESPGNNVVDISVPPTTDGQKPN [RAB11B] | 5.46 ± 0.3 | 5.57 ± 0.12 |  |  |
| WRERAVEKRERALEEVERAILEMK [ZBED2] | 4.2 ± 0.14 | 4.29 ± 0.44 |  |  |
| LEKEREKEISDDEAEEEKGEKEEE [HSP90AB1] | 5.66 ± 0.34 | 5.74 ± 0.21 |  |  |
| IASFIRGPNPSKLIQQFLTLRPDQ [CDS2] | 2.24 ± 0.17 | 2.33 ± 0.22 |  |  |
| FATQTEELNKQVVSSSEQLQSYQA [KRT33B] | 4.75 ± 0.24 | 4.64 ± 0.17 |  |  |
| PIYGLRQSILLNTRLQDCYVDSPA [C22orf31] | 2.69 ± 0.2 | 2.55 ± 0.38 |  |  |
| ENFQEGKDMSESQDEVPDEVENQF [TAF7L] | 5.58 ± 0.2 | 5.56 ± 0.24 |  |  |
| KCLYYLYATLDLNAVKYVSNIKFC [PDS5B] | 3.06 ± 0.41 | 2.75 ± 0.78 |  |  |
| CQDQNVPVENFFVKCNGALINTSD [SDE2] | 3.3 ± 0.23 | 3.27 ± 0.47 |  |  |

| Sequence | protein stability index [1] | protein stability index [2] | protein stability index (treatment: DMSO, c terminus: native) | protein stability index (treatment: MLN4924 1 uM, 8 h, c terminus: native) |
| --- | --- | --- | --- | --- |
| GLSHSHDLSMDGLFGTIAYLPPER [RIPK4] | 3.28 ± 0.32 | 3.42 ± 0.25 |  |  |
| NMSKEDAMVEFVKLLNRCCHLFST [ACBD3] | 2.24 ± 0.16 | 2.29 ± 0.39 |  |  |
| KNNDLVVAVNGESVETLDHDSVVE [PDZK1] | 5.37 ± 0.27 | 5.34 ± 0.14 |  |  |
| NESMKAYHNSPAYLAYINAKSRAE [SMARCE1] | 4.42 ± 0.27 | 4.26 ± 0.49 |  |  |
| THWAVGVCRDSVSRKGELTPLPET [TRIM39] | 2.96 ± 0.19 | 2.95 ± 0.23 |  |  |
| VCAICQINLEGKTFYSKKDRPLCK [PDLIM7] | 2.1 ± 0.44 | 2.42 ± 0.5 |  |  |
| PRLVSETAERKQEQKTGTEAEAAD [MFSD9] | 5.77 ± 0.12 | 5.61 ± 0.25 |  |  |
| NGEARQLPEDDGLEQDLQQVMVSG [ARFIP2] | 5.36 ± 0.22 | 5.49 ± 0.2 |  |  |
| SVNTHDYAKVKEFIVDILQFLDIG [MATN2] | 2.23 ± 0.35 | 2.05 ± 0.32 |  |  |
| ILKRRYYRQHCTLELGSYIKDLSV [CTDNEP1] | 2.46 ± 0.56 | 2.25 ± 0.66 |  |  |
| PLPPPPPAFKSMEVANFYYEADCL [CEBPB] | 3.9 ± 0.31 | 3.62 ± 0.33 |  |  |
| ACGIVSGKYDSGIPPYSRASLKGY [KCNAB2] | 2.35 ± 0.21 | 2.2 ± 0.12 |  |  |
| GIIVKDARLNGSVASYILASHNGI [TENT5D] | 2.66 ± 0.045 | 2.189 ± 0.003 |  |  |
| RKAITEAANAARHVAPEIRELLTQ [PWWP2B] | 4.06 ± 0.29 | 4.05 ± 0.079 |  |  |
| EEVRQLLETMARNEVIADINCKGR [OSBPL1A] | 3.16 ± 0.33 | 3.01 ± 0.46 |  |  |
| QRGRVISLWERLEFVNGWYILLVT [MCOLN1] | 2.79 ± 0.68 | 2.67 ± 0.65 |  |  |
| QREEHELVHVMERSLSPSLSSVDM [RAD54B] | 4.62 ± 0.31 | 4.76 ± 0.11 |  |  |
| DIKRLLVNFMYLQSLLQPKSSSVD [SMG5] | 2.97 ± 0.54 | 3.08 ± 0.51 |  |  |
| CEALINRVSAMRDYRGPDCRYLNF [MIA2] | 2.3 ± 0.33 | 2.53 ± 0.14 |  |  |
| LKAHAEEKPPSGTKEKKHQCDHCE [PLAGL1] | 5.38 ± 0.22 | 5.46 ± 0.098 |  |  |
| ACGGGHLLPYFYIIYMAILLTHRC [DHCR7] | 2.8 ± 0.18 | 3.07 ± 0.19 |  |  |
| QTAVQFQQYAAQQYPGNYEQQQIL [ACBD3] | 3.71 ± 0.22 | 3.61 ± 0.23 |  |  |
| MVANILNNEAFMNQEITKAFHVRR [RHOBTB2] | 2.53 ± 0.27 | 2.5 ± 0.27 |  |  |

| Sequence | protein stability index [1] | protein stability index [2] | protein stability index (treatment: DMSO, c terminus: native) | protein stability index (treatment: MLN4924 1 uM, 8 h, c terminus: native) |
| --- | --- | --- | --- | --- |
| AQVDGAAMFAADPKKPIGGNIIAH [RAD51] | 4.23 ± 0.18 | 4.36 ± 0.17 |  |  |
| YIVAGSARQHALYIWEKSIGNLVK [RBBP5] | 2.22 ± 0.25 | 2.14 ± 0.47 |  |  |
| QLNRRGEFIQEIRRQLEACQRERA [OAS1] | 4.09 ± 0.19 | 3.79 ± 0.075 |  |  |
| AGLAPPSLFARAMQVLVTAISPGR [ANKRD9] | 2.29 ± 0.1 | 2.29 ± 0.18 |  |  |
| FRFAPNHTKELEDKVIELHKSHRG [EPB41L3] | 2.88 ± 0.58 | 3.2 ± 0.68 |  |  |
| LLRPPVAAFVRAQADLLAHLVPEP [DNAAF3] | 2.23 ± 0.31 | 2.33 ± 0.31 |  |  |
| TVDGLHFNSTYNARVKAFNKTGVS [TRIM9] | 3.17 ± 0.19 | 3.46 ± 0.086 |  |  |
| APPQGSCGDELPWTLQRRLTRLRT [PLEKHN1] | 3.33 ± 0.26 | 3.51 ± 0.44 |  |  |
| SGMVTIITGLPLDNPSVLSGPMQA [SMG5] | 2.32 ± 0.35 | 2.14 ± 0.39 |  |  |
| QDIERGVQSEIFLHESYCMDTSHQ [LYSMD4] | 4.24 ± 0.15 | 4.25 ± 0.14 |  |  |
| EEERPLPEKEYQRQVWLLFEYPES [KCNA1] | 3.33 ± 0.12 | 3.63 ± 0.28 |  |  |
| ILHGTRGELLLDVAWHPVRPIIAS [RBBP5] | 2.51 ± 0.33 | 2.52 ± 0.25 |  |  |
| PRGSHSSALERLETKLHLLRQEMV [LURAP1L] | 2.53 ± 0.33 | 2.69 ± 0.27 |  |  |
| KFLAFSGPHPKSKIENGYPLHAPE [CDC14A] | 3.23 ± 0.15 | 3.16 ± 0.29 |  |  |
| EKNRKDAEDWFFSKTEELNREVAT [KRT17] | 4.5 ± 0.14 | 4.71 ± 0.27 |  |  |
| VKNSNRYDVEMTDELVGLPFSSHT [FBXO34] | 3.8 ± 0.25 | 4 ± 0.12 |  |  |
| VKHQCCPGCGYFCTAGNFMECQPE [EHMT1] | 3.31 ± 0.19 | 3.31 ± 0.5 |  |  |
| GNKCDLEDERVVGKEQGQNLARQW [RAP1B] | 4.7 ± 0.12 | 4.73 ± 0.14 |  |  |
| SPSFPEAPDSGRSAPYSAAFLELP [TBX6] | 3.96 ± 0.3 | 3.93 ± 0.44 |  |  |
| DHVHILDTETFTWSQPITTGKAPS [KLHDC2] | 3.82 ± 0.3 | 3.84 ± 0.4 |  |  |
| AAWGARVFSFGKHYWELDVDNSCD [TRIM43] | 2.25 ± 0.44 | 2.28 ± 0.3 |  |  |
| KFSQNSHLIKHRRTHTGEQPYTCS [ZNF75A] | 2.93 ± 0.14 | 3 ± 0.34 |  |  |
| KRCIVILREIPETTPIEEVKGLFK [LARP4] | 2.23 ± 0.46 | 1.93 ± 0.47 |  |  |

| Sequence | protein stability index [1] | protein stability index [2] | protein stability index (treatment: DMSO, c terminus: native) | protein stability index (treatment: MLN4924 1 uM, 8 h, c terminus: native) |
| --- | --- | --- | --- | --- |
| YQQQHEQQKKDLEILHQQNIHQLQ [SASS6] | 4.47 ± 0.11 | 4.6 ± 0.19 |  |  |
| QEKKLSFIEALIQQYQEQLDKSTK [TRIM63] | 2.82 ± 0.19 | 3.11 ± 0.5 |  |  |
| NEDEDLGPCEGPSKEDKDLDSSEG [SPANXN3] | 5.66 ± 0.21 | 5.54 ± 0.17 |  |  |
| LRELCRLWLRPETHTKEQILELVV [ZNF24] | 2.44 ± 0.21 | 2.11 ± 0.34 |  |  |
| QGIGSKIIKKVAEVALDKGCSQFR [SAT2] | 2.44 ± 0.68 | 2.27 ± 0.36 |  |  |
| FGYLGDRYNRKYLMCGGIAFWSLV [SPNS1] | 3.1 ± 0.51 | 2.75 ± 0.71 |  |  |
| RENKRMADSLASKVTRLKSLALDI [BET1L] | 2.63 ± 0.12 | 2.7 ± 0.31 |  |  |
| TLGREVMSPLQAMSSYTVAGRNVL [NLN] | 3.1 ± 0.2 | 3.01 ± 0.34 |  |  |
| NCKRERDARVKRKLRGPEPAATEA [TBX6] | 4.84 ± 0.42 | 4.66 ± 0.22 |  |  |
| KKVSKAAILARIKRTGDGNYKSG [SCD] |  |  | 2.88 ± 1.2 | 3.28 ± 0.21 |
| RTKVVKPYSTVDNPVYYGPSDFFI [EFHC1] | 2.35 ± 0.22 | 2.42 ± 0.36 |  |  |
| ACGSSSYVASIVDGGESRSEKGDS [RBMY1A1] | 5.22 ± 0.31 | 5.16 ± 0.35 |  |  |
| LDGAGLMGFVPHNGSLYGQASSER [ADAMTSL2] | 4.32 ± 0.67 | 3.58 ± 0.95 |  |  |
| KLAVFMWLMTYVGAVFNGITLLIL [RTN3] | 2.97 ± 0.23 | 3.21 ± 0.39 |  |  |
| GADYPVDGLPDLGHAQDLMDGLPP [CTNNB1] | 4.95 ± 0.24 | 5.17 ± 0.068 |  |  |
| PATEEQEAASSSSTLVEVTLGEVP [MAGEA3] | 5.52 ± 0.17 | 5.51 ± 0.17 |  |  |
| VEEVDMAEEFEQPTLSCEKYLTYD [ELOA2] | 5.09 ± 0.32 | 5.19 ± 0.39 |  |  |
| RYADLEAVNRARRPLARPIKRGDI [RHOBTB1] | 3.6 ± 0.4 | 3.83 ± 0.12 |  |  |
| EETTSQDWGTPRELTFSYIAFDGV [RTN2] | 2.65 ± 0.15 | 2.8 ± 0.61 |  |  |
| SLAGALGVKFVGLFIILQVGLNTI [POMT2] | 3.27 ± 0.16 | 3.16 ± 1.2 |  |  |
